The target in experiment [1] is T1, human calcitonin receptor (cDNA clone pHollex, from T-47D breast carcinoma cDNA), expressed in transfected … (human).
T1 chain: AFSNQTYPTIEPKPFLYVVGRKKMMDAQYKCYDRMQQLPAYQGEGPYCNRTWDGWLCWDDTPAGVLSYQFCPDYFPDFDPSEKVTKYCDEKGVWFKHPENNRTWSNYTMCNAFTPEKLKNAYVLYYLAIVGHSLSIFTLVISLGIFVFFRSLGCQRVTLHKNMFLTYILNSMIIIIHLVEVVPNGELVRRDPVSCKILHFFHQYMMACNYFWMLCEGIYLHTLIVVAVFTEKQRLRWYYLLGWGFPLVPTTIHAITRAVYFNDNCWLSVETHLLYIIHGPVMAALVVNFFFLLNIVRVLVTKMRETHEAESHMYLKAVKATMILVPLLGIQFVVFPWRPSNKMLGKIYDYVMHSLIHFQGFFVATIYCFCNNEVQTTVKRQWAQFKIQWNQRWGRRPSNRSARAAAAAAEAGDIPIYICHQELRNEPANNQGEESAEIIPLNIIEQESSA
Kind of experiment: 125I calcitonin competition binding on whole cells, clone Hollex2, average. On the procedure: (§1) Clones Hollex1 and Hollex2 were tested for receptor-mediated ability to bind calcitonin using a competition assay. T47D cells were used as a positive control and BHK cells transfected with Zem1698 were used as a negative control.
(§2) The cells were plated at a density of 1×10^5 cells/well in a 24-well cell culture dish and allowed to grow for 48 hours at 37° C. and 5% CO_2 in growth medium (described in previous examples). The cells were rinsed in binding medium (500 ml RPMI 1640 (Sigma, St. Louis, Mo.), 1 mg/ml bacitracin (Sigma), and 1 mg/ml BSA (Boehringer Mannheim)) to remove the serum. Three hundred microliters of binding medium containing radiolabeled ^125I agonist and a serial dilution of unlabeled competitor (Table 1) were added to appropriate wells. The cells were incubated for 1.5 hours at room temperature, and then rinsed 3 times with PBS to remove unincorporated radioactivity. Five hundred microliters of 0.25N NaOH was added to each well to solubilize the cells. The samples were collected from each well and CPMs were counted on a gamma counter.

Experiment [2] concerns the target T2, human calcitonin receptor (cDNA clone pHollex, from T-47D breast carcinoma cDNA), expressed in transfected BHK cells (human).
T2 sequence: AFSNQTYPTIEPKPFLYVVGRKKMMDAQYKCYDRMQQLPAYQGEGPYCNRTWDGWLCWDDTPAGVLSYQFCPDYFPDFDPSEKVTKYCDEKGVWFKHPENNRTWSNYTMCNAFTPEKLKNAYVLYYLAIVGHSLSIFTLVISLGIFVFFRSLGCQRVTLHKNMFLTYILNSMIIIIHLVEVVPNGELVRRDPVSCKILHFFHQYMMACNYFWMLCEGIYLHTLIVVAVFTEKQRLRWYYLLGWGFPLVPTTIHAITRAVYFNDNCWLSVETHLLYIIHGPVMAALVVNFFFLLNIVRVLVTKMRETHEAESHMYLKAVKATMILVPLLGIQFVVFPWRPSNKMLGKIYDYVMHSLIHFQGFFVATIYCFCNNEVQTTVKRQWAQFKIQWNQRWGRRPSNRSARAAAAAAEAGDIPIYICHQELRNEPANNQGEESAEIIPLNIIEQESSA

The target of experiment [3] is T1, human calcitonin receptor (cDNA clone …). The experiment in a line: 125I calcitonin competition binding on whole cells, clone Hollex1, average. On the procedure:
as §1, §2

The target in experiment [4] is T3, calcitonin receptor of T-47D human breast carcinoma cells (endogenous, positive control) (human, UniProt P30988).
T3 sequence: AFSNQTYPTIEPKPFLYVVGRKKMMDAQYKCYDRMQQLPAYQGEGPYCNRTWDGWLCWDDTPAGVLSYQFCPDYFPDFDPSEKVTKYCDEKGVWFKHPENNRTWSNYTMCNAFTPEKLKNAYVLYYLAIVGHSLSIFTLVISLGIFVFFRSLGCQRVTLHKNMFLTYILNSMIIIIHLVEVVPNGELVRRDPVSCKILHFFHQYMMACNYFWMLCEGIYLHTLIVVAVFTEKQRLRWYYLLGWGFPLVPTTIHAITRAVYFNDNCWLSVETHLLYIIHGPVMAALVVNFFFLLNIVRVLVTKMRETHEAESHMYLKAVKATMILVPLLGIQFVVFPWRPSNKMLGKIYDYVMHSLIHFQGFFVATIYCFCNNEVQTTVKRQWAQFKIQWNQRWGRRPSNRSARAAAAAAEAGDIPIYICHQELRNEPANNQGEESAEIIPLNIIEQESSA
Kind of experiment: 125I calcitonin competition binding on whole T47D cells (positive control), average. On the procedure:
as §1, §2

Experiment [5] deals with T2, human calcitonin receptor (cDNA clone pHollex, from T-47D breast carcinoma cDNA), expressed in transfected BHK cells (human). This is another data set of the same source.

Bridges are numbered along the chain shown (N, C = ends). Where no end group is shown, it is not given here.

Broadly, the Kd is a measure of binding affinity in units of concentration. CSNLSTCVLGKLSQELHKLQTYPRTNTGSGTP-NH2 (ligand, disulfide 1-7; ends not checked; also: also used 125I-labelled as tracer) [salmon calcitonin]: the dissociation constant Kd in experiment [1] came out at 0.3 nM; in experiment [3] it was 0.5 nM; in experiment [4], 0.6 nM. For the same molecule, in experiment [2], the ED50 of cAMP induction (Hollex1) was 0.07 nM. In addition, the ED50 of cAMP induction (Hollex2) in experiment [2] was determined as 0.04 nM. Also, the induction of cAMP (radioimmunoassay, scintillation proximity assay) (fold induction) in experiment [2] amounted to 12. In addition, in experiment [5], the ED50 of labeled inositol phosphate levels (Hollex1) was found to be 9.5 nM.

Source of the values: patent publication US5683884 (ZymoGenetics, Inc., dated 1997).
